Data as given in article PMC3571656.

Molecular target: CAX^CK31 (Ca2+/H+ antiporter of Caulobacter sp. K31), purified, lacking tags (Caulobacter sp. K31)
Assay: SEC-MALS

## CAX^CK31 (Ca2+/H+ antiporter of Caulobacter sp. K31), purified, lacking tags (natural protein)
  stoichiometry N: 2
